The target of this assay is human α-synuclein E57K mutant (6xHis:α-Syn-E57K) (human) (UniProt P37840).

Sequence of bacterial Hsp90 chaperone with C-terminal hexahistidine (Hsp90:6xHis) (P0A6Z3 whole entry): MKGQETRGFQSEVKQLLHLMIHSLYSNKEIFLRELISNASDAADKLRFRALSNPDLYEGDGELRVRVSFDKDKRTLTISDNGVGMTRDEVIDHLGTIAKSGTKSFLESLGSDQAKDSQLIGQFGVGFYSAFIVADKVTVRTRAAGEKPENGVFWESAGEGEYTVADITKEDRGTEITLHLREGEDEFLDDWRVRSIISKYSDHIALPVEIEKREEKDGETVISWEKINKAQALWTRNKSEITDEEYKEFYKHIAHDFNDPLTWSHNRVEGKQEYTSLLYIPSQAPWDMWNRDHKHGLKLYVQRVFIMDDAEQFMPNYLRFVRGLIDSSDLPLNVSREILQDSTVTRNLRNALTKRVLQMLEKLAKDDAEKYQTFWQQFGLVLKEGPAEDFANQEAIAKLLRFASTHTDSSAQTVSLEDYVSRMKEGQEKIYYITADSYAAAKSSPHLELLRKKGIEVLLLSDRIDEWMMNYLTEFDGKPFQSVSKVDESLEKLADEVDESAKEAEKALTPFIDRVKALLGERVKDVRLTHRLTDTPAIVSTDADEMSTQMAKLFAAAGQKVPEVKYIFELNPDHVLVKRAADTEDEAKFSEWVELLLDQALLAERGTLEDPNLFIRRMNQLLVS

With “bacterial Hsp90 chaperone with C-terminal hexahistidine (Hsp90:6xHis) (from UniProt P0A6Z3 1-624) (natural protein)”, the insoluble fraction of α-Syn-E57K after incubation under amyloidogenic conditions with free Hsp90 (18.42% without Hsp90); centrifugation, SDS-PAGE, band quantification came out at 5.67%.

Source of the values: PMC10401628.
